± gives the uncertainty stated by the source.
Experiment: amyloid nucleation score (Sup35N fusion, yeast selection) (log enrichment); library NNK2; higher = more nucleation; inactive = no reads after selection
How it was run: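 The nucleation score is the log enrichment of output over input reads, calculated with DiMSum and centred on the mode score of non-aggregating sequences. Sequences with under 100 input reads were excluded. Reads came from Illumina sequencing of plasmid inserts from psi-negative yeast expressing Sup35N fused to peptides of 20 random codons, induced 24 hours with 100 μM copper sulfate and grown 7 days at 30°C without adenine and uracil.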

Row | Substance | amyloid nucleation score
1 | DSSRAVLGVIRYSSEGSL | -0.34 ± 0.41
2 | YLLFTMRNLLILGRQGRSSL | -0.905 ± 0.45
3 | HLWSLRGPIAFIENRLSVWI | 0.605 ± 0.51
4 | DQFWSENRIDYDNLAIRLQL | -1.1 ± 0.76
5 | CVSEDDCLDYPKV | 2.29 ± 0.13
6 | NMFLFLCVRVCGVAFDKGKV | 2.28 ± 0.13
7 | SRDAKRALFDLDHRTRWDHK | 4.62 ± 0.079
8 | SYWGQIGRSHTSCLCPSDQV | inactive
9 | TLVSWYSTTEPAC | -1.13 ± 0.78
10 | WIYIIVSPFMRWLESSLLSA | inactive
11 | ESRGSCSIKNYRLVWDC | -0.451 ± 0.74
12 | RFYIPLSYFMSEGDRSCKFI | -0.642 ± 0.61
13 | GGYSLWF | 0.292 ± 0.23
14 | RCREWYMR | -0.568 ± 0.63
15 | KMHLAQ | inactive
16 | VSSPLAWKFLVNKICISDGG | inactive
17 | LNISFSDSLSRLVV | -0.935 ± 1.1
18 | ADKCYGYASACVFSGSLVC | 0.028 ± 0.56
19 | YHSFLWKINSCAVMMEDSTG | 0.811 ± 0.67
20 | AIEKSQYLSNVDYRICSLMT | -0.336 ± 0.23
21 | SSRTMRFNVRG | 0.722 ± 0.26
22 | RTVLATYMTPRSTPKSDYPR | -0.734 ± 0.48
23 | HWVCKIILRGHSSMYCSDGC | 3.35 ± 0.11
24 | DPITFEVSCNANVIDPNSLV | -1.22 ± 0.38
25 | FKGHHGHKVWETH | -0.145 ± 1.1

Row | Substance | amyloid nucleation score
26 | GACGVSEVMHRVVFRGRLKR | 0.4 ± 0.39
27 | NSSRGQPHLSNFPIRHHHVN | 0.461 ± 0.66
28 | NDDTDQLSTSSIGRRMRMR | 0.662 ± 0.81
29 | ILTIALVRFSLSRWRLPWPY | 1.36 ± 0.29
30 | SRTYATRLQLM | 0.007 ± 0.76
31 | LVCYLMTMNSNGARSRGVPF | 5.99 ± 0.063
32 | KWPHRYINTLVPLLIRWTYR | -0.421 ± 0.37
33 | GVSNNALCSNRITSLNRPML | 0.313 ± 0.17
34 | IIGINVWM | 5.443 ± 0.05
35 | YYGSGNPSQGVVSEWLVRDA | 0.571 ± 0.36
36 | CRLRVDVGECDRGLYALRVW | 1.21 ± 0.48
37 | TVWVIVERYMGFLYFLYNTS | inactive
38 | LPFMECC | -0.696 ± 1
39 | VREYQSWPKGCCT | 4.78 ± 0.065
40 | GMLEGCRHHGIGWKGYACGQ | 2.94 ± 0.087
41 | DWCWAMDLYSFVFHCRLEAF | -0.658 ± 1
42 | SFDLAVTECIALCFRCYQVF | -1.04 ± 0.39
43 | SYLLSKMQHFLMVTK | -1.32 ± 0.53
44 | RHDSCMCFMTDQL | -0.864 ± 0.44
45 | DPVTMLYSF | 0.179 ± 0.32
46 | CNPVAV | 0.8 ± 0.66
47 | LVVVRMGGIGLESFVAHGEV | 0.524 ± 0.35
48 | LIVVKCLSRRYCFCLLSVVV | 0.303 ± 0.32
49 | LFFSATKTCSWSLKECAKR | -0.243 ± 1.1
50 | DITYEYTTWGFLRRQAIRRP | 3.63 ± 0.089

Row | Substance | amyloid nucleation score
51 | SPSLVTNFVENGFFGVDLLS | inactive
52 | MFSNFLIRKEGRKKVAMVKK | -1.04 ± 0.33
53 | RLIGLVSRVEHVYIAVKRWE | 0.543 ± 0.34
54 | CLQSPLYFDWGSGIQISNWL | inactive
55 | IIFVVVASQKVHWFVRVDGD | -0.658 ± 1
56 | RGQTMNHALRAHW | 0.639 ± 0.42
57 | SLSCSESGVKNRKVVELGWM | 0.432 ± 0.32
58 | MVPKNFYFRRWLSWLRVRLL | 0.144 ± 0.52
59 | IFFLSNLKRKPDDRGLVHKN | 2.57 ± 0.14
60 | NPLHP | 0.116 ± 0.24
61 | FVRASGHTTCYSCQLSTPGP | 1.34 ± 0.15
62 | CRNRVDECSIWRD | -0.046 ± 1
63 | DYRMCI | 0.926 ± 0.48
64 | ARNIGDCRDVSCDWCFSYAF | 5.13 ± 0.064
65 | YGFCAFTHSC | -0.554 ± 1
66 | MCGSDNYILGLFWVYFMTNF | inactive
67 | GFDLAWSWIPFSRWFALLVN | -0.486 ± 0.56
68 | FKTVCVGKCLVFMVTDAELI | -1.49 ± 0.76
69 | CIDVSLFNGHACWIVCFSPV | 5.48 ± 0.045
70 | HKGFEPVGRGYALCSTWLVV | 6.37 ± 0.074
71 | NWIPGVVEKRSRLSGFWSWL | 0.657 ± 0.23
72 | RYVVCNGRNLELLDFMNSRS | -0.74 ± 1.1
73 | YYMTRVSPFQSFIVIMGASQ | 1.89 ± 0.24
74 | VIKCLVPSLIKSFRRHWFNT | -0.708 ± 0.79
75 | WRALPKYGYCLSLGVYEETR | -0.102 ± 0.55

Row | Substance | amyloid nucleation score
76 | AVFNGFKNNSLV | -0.146 ± 1
77 | KMCLIRYMHNPKVGIRLGRS | 0.102 ± 0.33
78 | RFVKTGYTYDLVGTVLHCLS | 5.97 ± 0.054
79 | MSSQKWADKVPWEFVCGCFD | 0.01 ± 0.65
80 | AVIDIIKRTSCTCDESCCIR | 0.415 ± 0.31
81 | YVWIQTLYALWYFSLRFAGL | -0.413 ± 0.49
82 | TVALNSWARHGEML | -0.375 ± 1.1
83 | HSPNCYKMSGRFLCD | -1.77 ± 0.54
84 | SFLFMKSTIRFIEL | -1.34 ± 0.36
85 | VNWRLKHWLGEDDPLPVTSF | -0.267 ± 0.63
86 | SLLRIRQYVVWRLG | 0.079 ± 0.6
87 | RLNRSMSSHHDRRHLEWSLS | 0.235 ± 0.19
88 | TVSSIKFVVYSGLRWYELVY | 2.27 ± 0.1
89 | QVYLS | -1.17 ± 0.62
90 | KGGSRLCNFRSATKLSGPLL | 0.597 ± 0.46
91 | EHLWYLIREIPNHEFKNKLE | 0.073 ± 0.42
92 | FLFQWLLEKPYFYPAFCKCK | 4.49 ± 0.061
93 | MLVEMYLFVNLCLYMRMSFR | 0.018 ± 0.5
94 | NLSVHAENLDNNRSGAEV | -0.102 ± 0.76
95 | VRQYPSTVPSLWLYVGSRH | 4.19 ± 0.069
96 | METAPTLNINVSDSQRPNVW | 0.71 ± 0.53
97 | DFDSQRSLKSSDRRFVTFTY | -0.869 ± 0.55
98 | QTYIFFICLVVGMYIVCGKH | -0.17 ± 0.45
99 | HKGCGNSCIWHYFGNFWRFR | -0.658 ± 0.56
100 | DFSTLAPLKLVMHI | -0.267 ± 0.54

Row | Substance | amyloid nucleation score
101 | LGLTSHTVPKCRCVGLMLMV | 0.438 ± 0.29
102 | VGLSPSSASTHLRN | 1.07 ± 0.33
103 | GIGAQINHSVPLRGGKPRAL | -0.406 ± 1.1
104 | YSWSRVKFNSL | 2.53 ± 0.076
105 | HWYVVDLVRVNYRALNSKWW | 0.194 ± 0.56
106 | LTPNCGKVGGRMRGRILSGV | 0.787 ± 0.3
107 | YRLAWGH | -0.363 ± 1.1
108 | SAFIVNCNLINAQERDFKSD | 6.682 ± 0.034
109 | NRFQYGCNSGSMTVWGALWF | 0.706 ± 0.81
110 | GRASMRACWVKMFYWFW | 0.981 ± 0.18
111 | FFTMCVAMYVVRSAYGMHN | -0.03 ± 0.44
112 | MMVGFLCK | 3.91 ± 0.07
113 | LALMS | -0.324 ± 0.61
114 | SLDIDQTVRFTTK | 5.618 ± 0.036
115 | TWIGYHFGI | inactive
116 | YRDNCMRNIENSVT | -0.802 ± 0.54
117 | RVKEMWGVYVGQHGYTANAL | 0.842 ± 0.47
118 | SVVVCWGKFLSGVGAWLFHS | inactive
119 | LSEFDHYDWVSSSTLFGFCC | -1.13 ± 1.1
120 | YIWLDAYFTESGILYYLMIR | inactive
121 | FRIIYKWCLMPLMPGCGGM | inactive
122 | CKLIFYTYPDYIYILIVKSS | inactive
123 | SLLIYQMYE | -0.263 ± 0.76
124 | LSVCLHHHNIAWDRCSGR | -0.469 ± 0.37
125 | VAFIFRSSWKSIPKTPKMYS | inactive
